The target of this data set is T1, RIG-I (ΔCARDs) (human, UniProt O95786 230-925, del1-229).
T1 sequence: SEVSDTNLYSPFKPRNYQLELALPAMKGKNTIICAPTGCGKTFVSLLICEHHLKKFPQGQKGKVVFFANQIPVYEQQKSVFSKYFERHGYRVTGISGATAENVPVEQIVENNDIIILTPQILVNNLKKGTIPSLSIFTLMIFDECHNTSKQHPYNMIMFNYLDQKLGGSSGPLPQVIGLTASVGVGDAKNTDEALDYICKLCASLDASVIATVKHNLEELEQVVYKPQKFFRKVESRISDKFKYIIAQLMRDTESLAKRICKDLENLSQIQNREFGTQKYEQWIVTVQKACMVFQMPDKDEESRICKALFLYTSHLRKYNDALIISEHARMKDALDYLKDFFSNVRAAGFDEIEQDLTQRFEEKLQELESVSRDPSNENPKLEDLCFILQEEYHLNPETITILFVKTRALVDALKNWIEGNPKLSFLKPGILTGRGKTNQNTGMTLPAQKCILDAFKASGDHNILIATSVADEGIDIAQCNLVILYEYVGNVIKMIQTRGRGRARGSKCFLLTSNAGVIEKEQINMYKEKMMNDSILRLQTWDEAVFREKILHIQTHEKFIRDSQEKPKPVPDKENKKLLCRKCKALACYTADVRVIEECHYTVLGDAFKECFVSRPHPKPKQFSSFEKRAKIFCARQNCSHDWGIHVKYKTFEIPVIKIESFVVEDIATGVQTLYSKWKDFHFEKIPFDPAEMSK
Briefly: X-ray crystallography.

B1: dsRNA10 (5'OH palindromic 10-mer duplex) (dsRNA)
RNA 1: GCGCGCGCGC
RNA 2: GCGCGCGCGC
Consider B1, for which the binding result is “binds”.

The values are drawn from paper PMC3222294.
